Data on four molecules can be found in article PMC3823767, “The ATP-Mediated Regulation of KaiB-KaiC Interaction in the Cyanobacterial Circadian Clock” (PLoS ONE, 2013).

Sequences and labels used below:
B1: N-terminal domain mutant protein of KaiC, residues 1 to 268 (KaiCN) (domain or fragment, UniProt Q79V60 1-268, looked up)
chain: MTNLPEHQSSPTEQSSAEVKKIPTMIEGFDDISHGGLPQGRTTLVSGTSGTGKTLFAVQFLYNGITIFNEPGIFVTFEESPQDIIKNALSFGWNLQSLIDQGKLFILDASPDPDGQEVAGDFDLSALIERIQYAIRKYKATRVSIDSVTAVFQQYDAASVVRREIFRLAFRLKQLGVTTIMTTERVDEYGPVARFGVEEFVSDNVVILRNVLEGERRRRTVEILKLRGTTHMKGEYPFTINNGINIFPLGAMRLTQRSSNVRVSSGVK
notes: KaiC, Thermosynechococcus elongatus BP-1, N-terminal domain, residues 1-268; Used as monomer (no ATP) and as hexamer (with ATP or Mg-ATP); the assay tells which; also called KaiCN^1mer; KaiCN^6mer
B4: KaiC_(S431D&T432D) (KaiCDD) (natural protein, UniProt Q79V60 1-518, looked up)
chain: MTNLPEHQSSPTEQSSAEVKKIPTMIEGFDDISHGGLPQGRTTLVSGTSGTGKTLFAVQFLYNGITIFNEPGIFVTFEESPQDIIKNALSFGWNLQSLIDQGKLFILDASPDPDGQEVAGDFDLSALIERIQYAIRKYKATRVSIDSVTAVFQQYDAASVVRREIFRLAFRLKQLGVTTIMTTERVDEYGPVARFGVEEFVSDNVVILRNVLEGERRRRTVEILKLRGTTHMKGEYPFTINNGINIFPLGAMRLTQRSSNVRVSSGVKTLDEMCGGGFFKDSIILATGATGTGKTLLVSKFLETGCQQGERALLFAYEESRAQLSRNASSWGIDFEELERRGLLRIICAYPESAGLEDHLQIIKSEIADFKPSRVAIDSLSALARGVSNNAFRQFVIGVTGFAKQEEITGFFTNTTDQFMGSNSITESHIDDITDTILLLQYVEIRGEMSRAINVFKMRGSWHDKGIREYVITEKGAEIRDSFRNFEGIISGTPTRISVDEKTELARIAKGMQDLESE
notes: KaiC, Thermosynechococcus elongatus BP-1, subunit of 518 amino acid residues, aspartate at the two phosphorylation sites; Used as monomer (KaiC^1mer, no ATP) and as hexamer (KaiC^6mer; with Mg-ATP, ATP, Mg-AMPPNP, Mg-ATPγS or Mg-ADP-AlFx); the assay tells which; also called KaiCDD^1mer; KaiCDD^6mer

Series [1] concerns the molecule itself. The series is described as follows: native gel or EMSA; 5 μM monomeric KaiC incubated with 1 mM ATP with or without 5 mM MgCl2 at 4 °C; monomer to hexamer. In general terms: In EMSA bound probe runs differently from free probe, usually more slowly.
The target in series [2] is B4. The series is described as follows: native gel or EMSA; KaiBWT (1 μM) or KaiB1-94 (2 μM) with 1 μM KaiCDD hexamer in reaction buffer (20 mM HEPES-NaOH pH 7.5, 150 mM NaCl) with Mg-ATP at 40 °C, time course; 10 % native gel, CBB, densitometry. Particulars: both partners purified.
The target of series [3] is B1. The series is described as follows: native gel or EMSA; monomeric KaiC (5 μM; 1 μM for the concentration series) with KaiB1-94 or 7.5 μM KaiBWT in reaction buffer without ATP, 4 °C, 6 h (KaiC_(C/DD) also at 25 °C); 10 % native gel, CBB, densitometry. Particulars: both partners purified.
The target of series [4] is B4. Described as above. The following applies: both partners purified.
A further series concerns the target T1, KaiC_(K294H/DD) (Thermosynechococcus elongatus BP-1 …, UniProt Q79V60 1-518, K294H | S431D | T432D).
T1 construct: KaiC, Thermosynechococcus elongatus BP-1, 518 residues, K294H in Walker's motif A (C-terminal ATPase motif mutation by the results) plus the DD mutation; Used as monomer (no ATP) and as hexamer (with Mg-ATP); the assay tells which; also called KaiC_(K294H/DD)^1mer; KaiC_(K294H/DD)^6mer
T1 sequence (looked up): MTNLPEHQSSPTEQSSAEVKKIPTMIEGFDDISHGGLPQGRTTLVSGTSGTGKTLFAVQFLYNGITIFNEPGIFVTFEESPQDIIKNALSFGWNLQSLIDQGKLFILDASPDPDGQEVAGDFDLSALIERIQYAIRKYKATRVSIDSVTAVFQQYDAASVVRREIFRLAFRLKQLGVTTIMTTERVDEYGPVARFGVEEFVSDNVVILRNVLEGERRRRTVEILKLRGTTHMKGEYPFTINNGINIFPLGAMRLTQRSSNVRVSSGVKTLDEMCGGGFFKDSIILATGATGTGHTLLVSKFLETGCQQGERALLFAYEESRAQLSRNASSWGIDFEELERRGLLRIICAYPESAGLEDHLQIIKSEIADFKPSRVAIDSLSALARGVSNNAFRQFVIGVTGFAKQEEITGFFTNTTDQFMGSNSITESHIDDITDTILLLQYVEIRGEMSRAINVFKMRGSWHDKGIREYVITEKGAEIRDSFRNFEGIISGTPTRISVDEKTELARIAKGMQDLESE
The description is as above. Particulars: both partners purified.

The target of a further series is T2, KaiC_(K53H/DD) (Thermosynechococcus elongatus BP-1 …, UniProt Q79V60 1-518, K53H | S431D | T432D).
T2 construct: KaiC, Thermosynechococcus elongatus BP-1, 518 residues, K53H in the N-terminal Walker's motif A plus the DD mutation; Used as monomer (no ATP) and as hexamer (with Mg-ATP); the assay tells which; also called KaiC_(K53H/DD)^1mer; KaiC_(K53H/DD)^6mer
T2 sequence (looked up): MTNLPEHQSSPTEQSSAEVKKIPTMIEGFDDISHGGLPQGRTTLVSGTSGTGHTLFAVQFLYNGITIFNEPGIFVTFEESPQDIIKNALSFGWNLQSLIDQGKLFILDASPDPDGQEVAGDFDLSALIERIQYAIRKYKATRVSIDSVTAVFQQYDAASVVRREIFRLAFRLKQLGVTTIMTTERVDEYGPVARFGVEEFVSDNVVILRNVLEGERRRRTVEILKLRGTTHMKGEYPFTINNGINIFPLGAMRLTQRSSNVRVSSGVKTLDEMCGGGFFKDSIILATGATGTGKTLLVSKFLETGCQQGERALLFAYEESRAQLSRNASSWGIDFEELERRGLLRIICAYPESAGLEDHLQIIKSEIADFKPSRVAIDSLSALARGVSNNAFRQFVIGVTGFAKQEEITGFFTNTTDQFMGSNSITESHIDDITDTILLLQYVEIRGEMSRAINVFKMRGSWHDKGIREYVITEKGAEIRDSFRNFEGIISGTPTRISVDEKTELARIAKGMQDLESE
The series is described as above. The following applies: both partners purified.

For the next series, the target named is T3, KaiC_(K294H) (Thermosynechococcus elongatus BP-1 …, UniProt Q79V60 1-518, K294H).
T3 construct: KaiC, Thermosynechococcus elongatus BP-1, 518 residues, K294H in Walker's motif A of the C-terminal domain; Used as hexamer formed with Mg-ATP; also called KaiC_(K294H)^6mer
T3 sequence (looked up): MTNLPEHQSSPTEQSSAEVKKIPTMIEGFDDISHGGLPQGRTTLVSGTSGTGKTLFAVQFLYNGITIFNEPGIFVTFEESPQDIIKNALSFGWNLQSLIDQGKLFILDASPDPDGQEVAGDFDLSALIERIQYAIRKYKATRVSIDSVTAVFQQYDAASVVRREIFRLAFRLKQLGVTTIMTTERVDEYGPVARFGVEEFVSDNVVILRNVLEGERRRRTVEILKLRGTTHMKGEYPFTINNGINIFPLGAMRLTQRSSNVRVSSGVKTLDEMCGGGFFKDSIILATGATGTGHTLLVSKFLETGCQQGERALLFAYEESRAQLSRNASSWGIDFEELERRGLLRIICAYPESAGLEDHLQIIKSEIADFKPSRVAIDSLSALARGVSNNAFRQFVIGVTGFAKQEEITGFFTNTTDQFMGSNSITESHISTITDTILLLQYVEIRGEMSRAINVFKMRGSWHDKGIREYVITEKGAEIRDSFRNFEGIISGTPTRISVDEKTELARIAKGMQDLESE
Description: native gel or EMSA; KaiC hexamer (formed with Mg-ATP, 1 μM) with 5 μM KaiB1-94 in the presence of Mg-ATP at 4 °C; native PAGE, complex bands checked by second-dimension SDS-PAGE. Particulars: both partners purified.

The target of a further series is T4, wild-type KaiC (KaiCWT) (Thermosynechococcus elongatus BP-1 …, UniProt Q79V60 1-518, phosphorylation level of the KaiCWT preparations about 30 % (phosphorylation sites Ser431 and Thr432)).
T4 construct: KaiC, Thermosynechococcus elongatus BP-1, wild type, subunit of 518 amino acid residues; Used as hexamer formed with Mg-ATP; also called KaiCWT^6mer
T4 sequence (looked up): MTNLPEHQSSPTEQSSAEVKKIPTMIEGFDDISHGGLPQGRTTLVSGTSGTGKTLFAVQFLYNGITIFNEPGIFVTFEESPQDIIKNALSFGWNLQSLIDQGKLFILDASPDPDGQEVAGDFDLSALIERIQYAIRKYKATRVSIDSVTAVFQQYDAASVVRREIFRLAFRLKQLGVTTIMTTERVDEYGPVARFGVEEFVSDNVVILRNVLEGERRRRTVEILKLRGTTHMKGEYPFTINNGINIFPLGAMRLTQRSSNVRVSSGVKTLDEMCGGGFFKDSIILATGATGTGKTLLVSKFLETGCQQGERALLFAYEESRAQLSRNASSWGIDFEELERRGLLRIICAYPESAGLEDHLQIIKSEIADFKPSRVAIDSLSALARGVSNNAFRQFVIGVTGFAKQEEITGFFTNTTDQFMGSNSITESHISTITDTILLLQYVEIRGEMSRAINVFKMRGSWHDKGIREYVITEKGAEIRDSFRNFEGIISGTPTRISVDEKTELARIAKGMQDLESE
The description is as above. The following applies: both partners purified.

A word on the stoichiometry N: it is the number of molecules, sites or subunits per partner or assembly. One may read the EC50 as the concentration giving half of the maximal effect. Lower therefore signals greater potency.

As for B1, the “stoichiometry N” value in series [1] stood at 6.

B2: wild-type KaiB (KaiBWT) (natural protein, UniProt Q79V61 1-108, looked up)
chain: MAPLRKTYVLKLYVAGNTPNSVRALKTLNNILEKEFKGVYALKVIDVLKNPQLAEEDKILATPTLAKVLPPPVRRIIGDLSNREKVLIGLDLLYEEIGDQAEDDLGLE
notes: KaiB, Thermosynechococcus elongatus BP-1, wild type, subunit of 108 amino acid residues; also called KaiBWT^4mer; KaiB^4mer
Take B2: the binding result in series [2] is on record as “binds”.

B3: mutant KaiB with a C-terminal deletion of residues 95 to 108 (KaiB1-94) (domain or fragment, UniProt Q79V61 1-94, looked up)
chain: MAPLRKTYVLKLYVAGNTPNSVRALKTLNNILEKEFKGVYALKVIDVLKNPQLAEEDKILATPTLAKVLPPPVRRIIGDLSNREKVLIGLDLLY
notes: KaiB, Thermosynechococcus elongatus BP-1, residues 1-94 (C-terminal residues 95-108 deleted)
Turning to B3, the binding result (in series [3]; with KaiC_(K294H/DD); with KaiC_(K53H/DD); with KaiC_(K294H); with wild-type KaiC (KaiCWT)) was “binds” throughout. Also, in series [4], the half-maximal effective concentration (EC50) is about 700 nM. The “t1/2 of complex formation” value was about 2.5 h in series [4] and 1.2 h in series [2].
Consider B4, for which the “stoichiometry N” value in series [1] was found to be 6.
